Test results taken from patent publication US9658208B2, “Methods and G proteins for screening and identifying ligands of G protein-coupled receptors” (Fred Hutchinson Cancer Research Center, priority 2011, dated 2017).

Target: T1, dopamine D4 receptor (Mus musculus, UniProt P51436)
T1 construct: expressed in transfected cells; host or cells: HEK-293
T1 sequence (P51436 1-387): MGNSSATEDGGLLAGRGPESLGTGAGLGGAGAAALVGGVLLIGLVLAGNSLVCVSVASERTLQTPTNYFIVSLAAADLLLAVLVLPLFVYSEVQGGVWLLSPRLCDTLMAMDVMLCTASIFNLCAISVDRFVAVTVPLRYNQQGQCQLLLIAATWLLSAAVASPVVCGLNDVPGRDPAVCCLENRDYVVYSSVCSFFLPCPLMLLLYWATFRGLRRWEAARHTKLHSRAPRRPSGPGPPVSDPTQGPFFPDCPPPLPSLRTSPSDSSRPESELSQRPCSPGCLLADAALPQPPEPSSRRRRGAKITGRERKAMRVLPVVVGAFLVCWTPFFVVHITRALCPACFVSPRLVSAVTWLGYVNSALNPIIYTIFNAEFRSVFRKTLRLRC
Assay: CRE-SEAP reporter gene assay, coupling with dopamine D4
Format: cell-based
Conditions: HEK-293 cells, 1 uM dopamine
Description: The GPCRs examined were those that couple with Gαi/Gαo subunits (serotonin 1b, neuropeptide Y1, leukotriene B4, and dopamine D4), Gαq (GNRH, UDP, and calcium-sensing receptors), and the orphan mammalian sweet taste receptor complex (T1R2 and T1R3) with unknown coupling preference. The Gαs-based chimeric G proteins examined in this example were Gαs-Gαi-5, Gαs-Gαt-13 (SEQ ID NO: 3), Gαs-Gαo-13 (SEQ ID NO: 4), Gαs-Gαi-13 (SEQ ID NO: 5), Gαs-Gαz-6 (SEQ ID NO: 18), Gαs-Gα15-13 (SEQ ID NO: 7), Gαs-Gαk-5 (SEQ ID NO: 2), and Gαs-Gαq-13 (SEQ ID NO: 8). The chimeric G protein constructs were prepared as described herein. For the coupling assay, HEK-293 cells were cotransfected with each of the Gαs-based chimeric G protein constructs of interest together with the CRE-SEAP reporter gene construct and a cDNA encoding the GPCR to be tested. The transfected cells were cultured in the presence or absence of a GPCR ligand and then assayed for SEAP activity.
Chimeric G protein cloning: An insert containing rat Gαs cDNA was cut out using the restriction enzymes SaII and HinDIII, and ligated into pcDNA3.1(−) cut with XhoI and HinDIII. […]
Following transfection, the cells were maintained for 48 hours in 200 ul serum free media containing GPCR ligand. […] Fluorescence was then measured using a CytoFluor 4000 multi well plate reader (Applied Biosystems).

B1: Gαs-Gαt-13: Gαs-based chimeric G protein, final 13 C-terminal amino acids substituted with those of Gαt (protein)
chain: MGCLGNSKTEDQRNEEKAQREANKKIEKQLQKDKQVYRATHRLLLLGAGESGKSTIVKQMRILHVNGFNGEGGEEDVPDYASNSDGEKATKVQDIKNNLKEAIETIVAAMSNLVPPVELANPENQFRVDYILSVMNVPNFDFPPEFYEHAKALWEDEGVRACYERSNEYQLIDCAQYFLDKIDVIKQADYVPSDQDLLRCRVLTSGIFETKFQVDKVNFHMFDVGGQRDERRKWIQCFNDVTAIIFVVASSSYNMVIREDNQTNRLQEALNLFKSIWNNRWLRTISVILFLNKQDLLAEKVLAGKSKIEDYFPEFARYTTPEDATPEPGEDPRVTRAKYFIRDEFLRISTASGDGRHYCYPHFTCAVDTENIRRVFNDCRDIIIKENLKDCGLF
modifications: Chimeric protein
notes: Gαs-based chimeric G protein, final 13 C-terminal amino acids substituted with those of Gαt
  coupling with dopamine D4 receptor: did not couple
